The record followed here is doi:10.1101/358382.

pKd, pKi: −log10 of the molar value. Read-outs that look alike come from different tables or passages of the source.

One assay addresses MBP-DurN. Briefly: fluorescence polarisation. On the technique in general: Polarisation of emitted light reports the rotation of a fluorescent probe.
Assay [1] addresses DurN. Briefly: crystal structure.
The target in assay [2] is DurN. Description: crystal structure. This is another data set of the same source.
In assay [3] the target is DurN. Description: crystal structure. This is another data set of the same source.
Assay [4] addresses fluorescently labeled duramycin. Briefly: fluorescence polarisation.

Substance 1-Hya15Ser (peptide) gave a negative-log Ki (pKi) with MBP-DurN of 4.99.
Turning to DurN (enzyme), the stoichiometry N with DurN [1], with DurN [2] and in the assay with DurN [3] was 2 throughout.
In assay [4], MBP-DurN (enzyme) had a negative-log Kd (pKd) of 6.38.
In turn, MBP-DurN K66A (enzyme) showed a pKi in assay [4] of 5.13.
In the assay with MBP-DurN, duramycin (peptide) gave a negative-log Ki (pKi) of 5.57.

The pKi is the negative decadic logarithm of the Ki, by convention in mol/L. Low readings indicate a high Ki, high ones a low Ki. As a reminder, the stoichiometry N is a count of units in the complex or per binding partner. As a reminder, the pKd is the Kd on a negative log10 scale, so that one unit is a factor of ten. Low readings indicate a high Kd, high ones a low Kd.
